Assay results taken from article PMC9060471 (2022).

Target: 6xHis-TLX ligand-binding domain (UniProt Q9Y466 155-385)
Sequence (Q9Y466 155-385): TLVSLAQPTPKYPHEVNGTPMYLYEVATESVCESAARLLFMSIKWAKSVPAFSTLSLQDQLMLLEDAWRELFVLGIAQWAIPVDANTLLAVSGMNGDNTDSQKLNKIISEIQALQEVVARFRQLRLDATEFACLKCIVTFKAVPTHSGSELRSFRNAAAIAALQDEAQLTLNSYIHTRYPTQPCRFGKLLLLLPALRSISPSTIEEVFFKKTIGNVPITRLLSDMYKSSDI

LTERHKILHRLLQEGSPSD [NCOA1-II peptide (competitor in the ALPHA competition experiment)]
EC50: 3.3 µM
